# Experimental data reported in publication PMC9482650, “Quantitative fragmentomics allow affinity mapping of interactomes” (Nature Communications, 2022).
# T1: DFNB31_2, Q9P202
# T1 sequence (Q9P202 274-371, limits assumed, looked up): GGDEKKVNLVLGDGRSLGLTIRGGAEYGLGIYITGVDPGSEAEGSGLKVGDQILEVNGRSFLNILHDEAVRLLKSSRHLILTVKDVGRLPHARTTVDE
# T2: DFNB31_3, Q9P202
# T2 sequence (Q9P202 811-907, limits assumed, looked up): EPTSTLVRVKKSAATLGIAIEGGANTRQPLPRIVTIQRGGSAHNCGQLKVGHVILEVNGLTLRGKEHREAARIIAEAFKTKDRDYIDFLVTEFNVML
# T3: DLG3_3, Q92796
# T3 sequence (Q92796 374-475, limits assumed, looked up): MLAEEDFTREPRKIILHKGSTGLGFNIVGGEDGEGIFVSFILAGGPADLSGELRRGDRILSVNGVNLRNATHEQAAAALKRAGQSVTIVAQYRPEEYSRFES
# T4: GRIP1_4, Q9Y3R0
# T4 sequence (Q9Y3R0 467-571, limits assumed, looked up): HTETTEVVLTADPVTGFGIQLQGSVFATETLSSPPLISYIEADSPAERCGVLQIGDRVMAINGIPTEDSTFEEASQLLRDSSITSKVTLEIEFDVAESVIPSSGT
# T5: GRIP1_5, Q9Y3R0
# T5 sequence (Q9Y3R0 568-668, limits assumed, looked up): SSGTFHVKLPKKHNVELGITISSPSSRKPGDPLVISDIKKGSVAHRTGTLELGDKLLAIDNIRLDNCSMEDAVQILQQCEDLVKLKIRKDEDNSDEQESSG
# T6: LIN7B, Q9HAP6
# T6 sequence (Q9HAP6 88-185, limits assumed, looked up): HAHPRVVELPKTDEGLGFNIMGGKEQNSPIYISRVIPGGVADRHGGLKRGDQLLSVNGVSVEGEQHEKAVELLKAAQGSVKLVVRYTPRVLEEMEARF
# T7: LRRC7, Q96NW7
# T7 sequence (Q96NW7 1440-1537, limits assumed, looked up): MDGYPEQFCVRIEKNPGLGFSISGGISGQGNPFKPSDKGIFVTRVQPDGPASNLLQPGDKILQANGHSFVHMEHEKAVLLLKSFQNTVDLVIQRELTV
# T8: MPDZ_12, O75970
# T8 sequence (O75970 1857-1958, limits assumed, looked up): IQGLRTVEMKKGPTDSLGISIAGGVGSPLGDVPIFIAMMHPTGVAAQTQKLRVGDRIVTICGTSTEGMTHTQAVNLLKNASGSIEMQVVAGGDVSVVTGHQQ
# T9: MPP2, Q14168
# T9 sequence (Q14168 180-250, limits assumed, looked up): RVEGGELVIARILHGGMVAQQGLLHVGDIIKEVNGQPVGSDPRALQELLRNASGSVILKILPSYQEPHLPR
# T10: NHERF3_4, Q5T2W1
# T10 sequence (Q5T2W1 373-468, limits assumed, looked up): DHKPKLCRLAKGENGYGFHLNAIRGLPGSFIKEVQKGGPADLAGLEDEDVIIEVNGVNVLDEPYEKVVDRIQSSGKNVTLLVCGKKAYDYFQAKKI
# T11: PARD3B_1, Q8TEW8
# T11 sequence (Q8TEW8 196-299, limits assumed, looked up): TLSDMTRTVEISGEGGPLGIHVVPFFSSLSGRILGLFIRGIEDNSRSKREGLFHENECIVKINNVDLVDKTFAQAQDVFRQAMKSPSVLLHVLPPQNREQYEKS
# T12: PDZD2_2, O15018
# T12 sequence (O15018 329-429, limits assumed, looked up): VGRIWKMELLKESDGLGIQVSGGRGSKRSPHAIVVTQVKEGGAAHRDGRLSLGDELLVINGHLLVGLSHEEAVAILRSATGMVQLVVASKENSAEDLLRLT
# T13: RAPGEF6, Q8TEU7
# T13 sequence (Q8TEU7 525-625, limits assumed, looked up): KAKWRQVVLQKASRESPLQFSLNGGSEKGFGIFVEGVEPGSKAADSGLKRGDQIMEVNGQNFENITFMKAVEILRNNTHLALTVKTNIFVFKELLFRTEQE
# Target: T1, DFNB31_2, Q9P202
# Assay: holdup assay
# Parameters: key: below the threshold = too weak to quantify, mostly under pKd 3.1 to 4
# Conditions: plain residues with an end cap or a label only (N-terminal biotin on a linker: ado-ado)
row,Binder,pKd
1,"LSEFKAMDSF [CTNNA2, P26232]",below the threshold
2,"EEDTAEKDEL [HSPA5, P11021]",below the threshold

# Target: T2, DFNB31_3, Q9P202
# Assay: holdup assay
# Parameters: key: below the threshold = too weak to quantify, mostly under pKd 3.1 to 4
# Conditions: plain residues with an end cap or a label only (N-terminal biotin on a linker: ado-ado)
row,Binder,pKd
1,"LSEFKAMDSF [CTNNA2, P26232]",below the threshold
2,"EEDTAEKDEL [HSPA5, P11021]",4.19

# Target: DLG1_1, Q12959
# Assay: holdup assay
# Parameters: key: below the threshold = too weak to quantify, mostly under pKd 3.1 to 4
# Conditions: plain residues with an end cap or a label only (N-terminal biotin on a linker: ado-ado)
row,Binder,pKd
1,"LSEFKAMDSF [CTNNA2, P26232]",below the threshold
2,"EEDTAEKDEL [HSPA5, P11021]",3.79

# Target: T3, DLG3_3, Q92796
# Assay: holdup assay
# Parameters: key: below the threshold = too weak to quantify, mostly under pKd 3.1 to 4
# Conditions: plain residues with an end cap or a label only (N-terminal biotin on a linker: ado-ado)
row,Binder,pKd
1,"LSEFKAMDSF [CTNNA2, P26232]",below the threshold
2,"EEDTAEKDEL [HSPA5, P11021]",below the threshold

# Target: T4, GRIP1_4, Q9Y3R0
# Assay: holdup assay
# Parameters: key: below the threshold = too weak to quantify, mostly under pKd 3.1 to 4
# Conditions: plain residues with an end cap or a label only (N-terminal biotin on a linker: ado-ado)
row,Binder,pKd
1,"LSEFKAMDSF [CTNNA2, P26232]",below the threshold
2,"EEDTAEKDEL [HSPA5, P11021]",below the threshold

# Target: T5, GRIP1_5, Q9Y3R0
# Assay: holdup assay
# Parameters: key: below the threshold = too weak to quantify, mostly under pKd 3.1 to 4
# Conditions: plain residues with an end cap or a label only (N-terminal biotin on a linker: ado-ado)
row,Binder,pKd
1,"LSEFKAMDSF [CTNNA2, P26232]",below the threshold
2,"EEDTAEKDEL [HSPA5, P11021]",below the threshold

# Target: GRIP2_5, Q9C0E4
# Assay: holdup assay
# Parameters: key: below the threshold = too weak to quantify, mostly under pKd 3.1 to 4
# Conditions: plain residues with an end cap or a label only (N-terminal biotin on a linker: ado-ado)
# Chain of GRIP2_5, Q9C0E4 (Q9C0E4 544-642): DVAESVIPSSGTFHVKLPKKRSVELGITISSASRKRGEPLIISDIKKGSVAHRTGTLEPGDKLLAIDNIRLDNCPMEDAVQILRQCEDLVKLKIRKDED
row,Binder,pKd
1,"LSEFKAMDSF [CTNNA2, P26232]",below the threshold
2,"EEDTAEKDEL [HSPA5, P11021]",below the threshold

# Target: Inadl_2, Q8NI35
# Assay: holdup assay
# Parameters: key: below the threshold = too weak to quantify, mostly under pKd 3.1 to 4
# Conditions: plain residues with an end cap or a label only (N-terminal biotin on a linker: ado-ado)
# Chain of Inadl_2, Q8NI35 (Q8NI35 238-335): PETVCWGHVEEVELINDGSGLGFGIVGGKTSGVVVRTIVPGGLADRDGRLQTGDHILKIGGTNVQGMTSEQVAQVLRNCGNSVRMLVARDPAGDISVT
row,Binder,pKd
1,"LSEFKAMDSF [CTNNA2, P26232]",below the threshold
2,"EEDTAEKDEL [HSPA5, P11021]",below the threshold

# Target: T6, LIN7B, Q9HAP6
# Assay: holdup assay
# Parameters: key: below the threshold = too weak to quantify, mostly under pKd 3.1 to 4
# Conditions: plain residues with an end cap or a label only (N-terminal biotin on a linker: ado-ado)
row,Binder,pKd
1,"LSEFKAMDSF [CTNNA2, P26232]",3.85
2,"EEDTAEKDEL [HSPA5, P11021]",below the threshold

# Target: LNX1_3, Q8TBB1
# Assay: holdup assay
# Parameters: key: below the threshold = too weak to quantify, mostly under pKd 3.1 to 4
# Conditions: plain residues with an end cap or a label only (N-terminal biotin on a linker: ado-ado)
# Chain of LNX1_3, Q8TBB1 (Q8TBB1 500-596): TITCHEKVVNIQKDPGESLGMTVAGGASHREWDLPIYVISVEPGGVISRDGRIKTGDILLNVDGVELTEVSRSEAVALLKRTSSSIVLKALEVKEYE
row,Binder,pKd
1,"LSEFKAMDSF [CTNNA2, P26232]",below the threshold
2,"EEDTAEKDEL [HSPA5, P11021]",below the threshold

# Target: T7, LRRC7, Q96NW7
# Assay: holdup assay
# Parameters: key: below the threshold = too weak to quantify, mostly under pKd 3.1 to 4
# Conditions: plain residues with an end cap or a label only (N-terminal biotin on a linker: ado-ado)
row,Binder,pKd
1,"LSEFKAMDSF [CTNNA2, P26232]",below the threshold
2,"EEDTAEKDEL [HSPA5, P11021]",3.47

# Target: MAST2, Q6P0Q8
# Assay: holdup assay
# Parameters: key: below the threshold = too weak to quantify, mostly under pKd 3.1 to 4
# Conditions: plain residues with an end cap or a label only (N-terminal biotin on a linker: ado-ado)
# Chain of MAST2, Q6P0Q8 (Q6P0Q8 1099-1202): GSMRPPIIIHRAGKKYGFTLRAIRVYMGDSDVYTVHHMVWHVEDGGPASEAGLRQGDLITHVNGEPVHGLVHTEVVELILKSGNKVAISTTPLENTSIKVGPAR
row,Binder,pKd
1,"LSEFKAMDSF [CTNNA2, P26232]",below the threshold
2,"EEDTAEKDEL [HSPA5, P11021]",3.7

# Target: T8, MPDZ_12, O75970
# Assay: holdup assay
# Parameters: key: below the threshold = too weak to quantify, mostly under pKd 3.1 to 4
# Conditions: plain residues with an end cap or a label only (N-terminal biotin on a linker: ado-ado)
row,Binder,pKd
1,"LSEFKAMDSF [CTNNA2, P26232]",below the threshold
2,"EEDTAEKDEL [HSPA5, P11021]",3.52

# Target: T9, MPP2, Q14168
# Assay: holdup assay
# Parameters: key: below the threshold = too weak to quantify, mostly under pKd 3.1 to 4
# Conditions: plain residues with an end cap or a label only (N-terminal biotin on a linker: ado-ado)
row,Binder,pKd
1,"LSEFKAMDSF [CTNNA2, P26232]",below the threshold
2,"EEDTAEKDEL [HSPA5, P11021]",below the threshold

# Target: NHERF2_2, Q15599
# Assay: holdup assay
# Parameters: key: below the threshold = too weak to quantify, mostly under pKd 3.1 to 4
# Conditions: plain residues with an end cap or a label only (N-terminal biotin on a linker: ado-ado)
# Chain of NHERF2_2, Q15599 (Q15599 142-238): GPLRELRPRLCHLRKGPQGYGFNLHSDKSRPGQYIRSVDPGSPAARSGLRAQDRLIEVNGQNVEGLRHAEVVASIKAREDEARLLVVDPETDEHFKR
row,Binder,pKd
1,"LSEFKAMDSF [CTNNA2, P26232]",below the threshold
2,"EEDTAEKDEL [HSPA5, P11021]",3.7

# Target: T10, NHERF3_4, Q5T2W1
# Assay: holdup assay
# Parameters: key: below the threshold = too weak to quantify, mostly under pKd 3.1 to 4
# Conditions: plain residues with an end cap or a label only (N-terminal biotin on a linker: ado-ado)
row,Binder,pKd
1,"LSEFKAMDSF [CTNNA2, P26232]",below the threshold
2,"EEDTAEKDEL [HSPA5, P11021]",below the threshold

# Target: T11, PARD3B_1, Q8TEW8
# Assay: holdup assay
# Parameters: key: below the threshold = too weak to quantify, mostly under pKd 3.1 to 4
# Conditions: plain residues with an end cap or a label only (N-terminal biotin on a linker: ado-ado)
row,Binder,pKd
1,"LSEFKAMDSF [CTNNA2, P26232]",3.59
2,"EEDTAEKDEL [HSPA5, P11021]",3.72

# Target: T12, PDZD2_2, O15018
# Assay: holdup assay
# Parameters: key: below the threshold = too weak to quantify, mostly under pKd 3.1 to 4
# Conditions: plain residues with an end cap or a label only (N-terminal biotin on a linker: ado-ado)
row,Binder,pKd
1,"LSEFKAMDSF [CTNNA2, P26232]",below the threshold
2,"EEDTAEKDEL [HSPA5, P11021]",3.53

# Target: PDZRN4_1, Q6ZMN7
# Assay: holdup assay
# Parameters: key: below the threshold = too weak to quantify, mostly under pKd 3.1 to 4
# Conditions: plain residues with an end cap or a label only (N-terminal biotin on a linker: ado-ado)
# Chain of PDZRN4_1, Q6ZMN7 (Q6ZMN7 213-318): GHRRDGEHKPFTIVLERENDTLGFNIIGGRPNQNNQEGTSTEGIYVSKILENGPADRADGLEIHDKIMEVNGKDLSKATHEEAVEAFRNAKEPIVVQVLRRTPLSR
row,Binder,pKd
1,"LSEFKAMDSF [CTNNA2, P26232]",below the threshold
2,"EEDTAEKDEL [HSPA5, P11021]",below the threshold

# Target: T13, RAPGEF6, Q8TEU7
# Assay: holdup assay
# Parameters: key: below the threshold = too weak to quantify, mostly under pKd 3.1 to 4
# Conditions: plain residues with an end cap or a label only (N-terminal biotin on a linker: ado-ado)
row,Binder,pKd
1,"LSEFKAMDSF [CTNNA2, P26232]",below the threshold
2,"EEDTAEKDEL [HSPA5, P11021]",below the threshold

# Target: SCRIB_1, Q14160
# Assay: holdup assay
# Parameters: key: below the threshold = too weak to quantify, mostly under pKd 3.1 to 4
# Conditions: plain residues with an end cap or a label only (N-terminal biotin on a linker: ado-ado)
# Chain of SCRIB_1, Q14160 (Q14160 718-814): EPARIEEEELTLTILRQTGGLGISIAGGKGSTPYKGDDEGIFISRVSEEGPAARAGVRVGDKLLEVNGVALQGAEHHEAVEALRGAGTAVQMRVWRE
row,Binder,pKd
1,"LSEFKAMDSF [CTNNA2, P26232]",below the threshold
2,"EEDTAEKDEL [HSPA5, P11021]",below the threshold

# Target: SCRIB_3, Q14160
# Assay: holdup assay
# Parameters: key: below the threshold = too weak to quantify, mostly under pKd 3.1 to 4
# Conditions: plain residues with an end cap or a label only (N-terminal biotin on a linker: ado-ado)
# Chain of SCRIB_3, Q14160 (Q14160 999-1103): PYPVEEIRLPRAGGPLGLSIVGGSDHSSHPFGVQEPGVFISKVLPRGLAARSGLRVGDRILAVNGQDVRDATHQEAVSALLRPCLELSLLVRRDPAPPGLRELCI
row,Binder,pKd
1,"LSEFKAMDSF [CTNNA2, P26232]",below the threshold
2,"EEDTAEKDEL [HSPA5, P11021]",below the threshold

# Target: SNX27, Q96L92
# Assay: holdup assay
# Parameters: key: below the threshold = too weak to quantify, mostly under pKd 3.1 to 4
# Conditions: plain residues with an end cap or a label only (N-terminal biotin on a linker: ado-ado)
row,Binder,pKd
1,"LSEFKAMDSF [CTNNA2, P26232]",below the threshold
2,"EEDTAEKDEL [HSPA5, P11021]",3.61

# Target: TJP2_1, Q9UDY2
# Assay: holdup assay
# Parameters: key: below the threshold = too weak to quantify, mostly under pKd 3.1 to 4
# Conditions: plain residues with an end cap or a label only (N-terminal biotin on a linker: ado-ado)
# Chain of TJP2_1, Q9UDY2 (Q9UDY2 24-128): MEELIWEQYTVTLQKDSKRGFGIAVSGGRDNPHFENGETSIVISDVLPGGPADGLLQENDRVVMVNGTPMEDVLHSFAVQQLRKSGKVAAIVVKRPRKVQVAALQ
row,Binder,pKd
1,"LSEFKAMDSF [CTNNA2, P26232]",below the threshold
2,"EEDTAEKDEL [HSPA5, P11021]",below the threshold
